Residue numbers refer to the chain shown, from its start. Each block holds one binder with its values, some of them ahead of it.
Key:
[1] = molecular target: T1, human PD-1 ECD-Fc chimeric construct 2 (human, UniProt Q15116 21-170); assay: SPR, Fab on captured PD-1-Fc
T1 construct: not shown: human IgG1 Fc, residues P101-K330
T1 chain: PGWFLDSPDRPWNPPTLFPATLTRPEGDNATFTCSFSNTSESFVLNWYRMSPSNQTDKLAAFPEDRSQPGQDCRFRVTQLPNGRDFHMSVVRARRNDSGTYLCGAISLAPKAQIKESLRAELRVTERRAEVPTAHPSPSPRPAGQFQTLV

[2] = molecular target: T2, human PD-1 ECD-Fc chimeric construct 3 (human, UniProt Q15116 21-170); assay: SPR, Fab on captured PD-1-Fc
T2 construct: not shown: human IgG1 Fc, residues P101-K330
T2 chain: T1 chain with L17F, F18S, E26A, D28S, N29S

[3] = molecular target: T3, human PD-1 ECD-Fc chimeric construct 5 (human, UniProt Q15116 21-170); assay: SPR, Fab on captured PD-1-Fc
T3 construct: 'S56I' as printed; not shown: C-terminal human IgG Fc (printed as residues P101-K330)
T3 chain: T1 chain with L17F, F18S, T21L, T23V, R24V, P25T, T33I, S35N, F36I, T39S

[4] = molecular target: T4, human PD-1 ECD-Fc chimeric construct 6 (human, UniProt Q15116 21-170); assay: SPR, Fab on captured PD-1-Fc
T4 construct: not shown: human IgG1 Fc, residues P101-K330
T4 chain: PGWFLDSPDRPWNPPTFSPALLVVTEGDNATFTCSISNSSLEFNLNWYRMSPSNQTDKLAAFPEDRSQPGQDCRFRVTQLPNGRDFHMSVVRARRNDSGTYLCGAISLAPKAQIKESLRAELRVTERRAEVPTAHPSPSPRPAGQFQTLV

[5] = molecular target: T5, human PD-1 ECD-Fc chimeric construct 8 (human, UniProt Q15116 21-170); assay: SPR, Fab on captured PD-1-Fc
T5 construct: not shown: human IgG1 Fc, residues P101-K330
T5 chain: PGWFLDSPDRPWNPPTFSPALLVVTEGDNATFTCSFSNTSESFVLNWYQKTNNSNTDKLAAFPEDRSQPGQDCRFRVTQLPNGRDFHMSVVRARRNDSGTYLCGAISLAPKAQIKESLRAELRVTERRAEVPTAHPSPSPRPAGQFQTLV

[6] = molecular target: T6, human PD-1 ECD-Fc chimeric construct 11 (human, UniProt Q15116 21-170); assay: SPR, Fab on captured PD-1-Fc
T6 construct: printed run together as P83IE84R; not shown: human IgG1 Fc, residues P101-K330
T6 chain: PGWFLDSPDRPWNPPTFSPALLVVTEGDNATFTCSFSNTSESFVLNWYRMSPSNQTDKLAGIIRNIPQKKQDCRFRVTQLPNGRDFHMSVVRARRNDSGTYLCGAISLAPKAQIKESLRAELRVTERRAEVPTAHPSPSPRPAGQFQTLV

[7] = molecular target: T7, human PD-1 ECD-Fc chimeric construct 12 (human, UniProt Q15116 21-170); assay: SPR, Fab on captured PD-1-Fc
T7 construct: not shown: human IgG1 Fc, residues P101-K330
T7 chain: T6 chain with G61A, I62F, I63P, R64E, N65D, Q71M, D72E, R74K, F75Y

[8] = molecular target: T8, human PD-1 ECD-Fc chimeric construct 16 (human, UniProt Q15116 21-170); assay: SPR, Fab on captured PD-1-Fc
T8 construct: not shown: human IgG1 Fc, residues P101-K330
T8 chain: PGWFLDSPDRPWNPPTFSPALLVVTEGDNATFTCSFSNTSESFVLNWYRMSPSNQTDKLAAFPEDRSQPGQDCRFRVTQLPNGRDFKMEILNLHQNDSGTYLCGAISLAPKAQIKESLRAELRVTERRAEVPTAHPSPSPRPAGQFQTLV

[9] = molecular target: T9, human PD-1 ECD-Fc chimeric construct 18 (human, UniProt Q15116 21-170); assay: SPR, Fab on captured PD-1-Fc
T9 construct: not shown: human IgG1 Fc, residues P101-K330
T9 chain: T4 chain with I36F, S39T, L41E, E42S, N44V, T100F, L102Y, A105L

[10] = molecular target: T10, human PD-1 ECD-Fc chimeric construct 20 (human, UniProt Q15116 21-170); assay: SPR, Fab on captured PD-1-Fc
T10 construct: printed run together as I134VK135V; not shown: human IgG1 Fc, residues P101-K330
T10 chain: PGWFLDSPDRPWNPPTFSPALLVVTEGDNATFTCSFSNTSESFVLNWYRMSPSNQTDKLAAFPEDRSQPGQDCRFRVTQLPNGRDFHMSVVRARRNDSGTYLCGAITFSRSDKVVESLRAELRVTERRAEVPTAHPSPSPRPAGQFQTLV

[11] = molecular target: T11, human PD-1 ECD-Fc chimeric construct 21 (human, UniProt Q15116 21-170); assay: SPR, Fab on captured PD-1-Fc
T11 construct: printed run together as I134VK135V; not shown: human IgG1 Fc, residues P101-K330
T11 chain: T10 chain with T107S, F108L, S109A, R110P, L118S, R119H, A120S

[12] = molecular target: T12, human PD-1 ECD-Fc chimeric construct 23 (human, UniProt Q15116 21-170); assay: SPR, Fab on captured PD-1-Fc
T12 construct: not shown: human IgG1 Fc, residues P101-K330

[13] = molecular target: T13, human PD-1 ECD Fc fusion, wild-type (human, UniProt Q15116 21-170); assay: SPR, Fab on captured wild-type PD-1-Fc; row head prints (nM), values evidently in M
T13 construct: also called Hu PD-1 ECD wild-type; hu PD-1 ECD; not shown: human IgG1 Fc, residues P101-K330
T13 sequence (Q15116 21-170): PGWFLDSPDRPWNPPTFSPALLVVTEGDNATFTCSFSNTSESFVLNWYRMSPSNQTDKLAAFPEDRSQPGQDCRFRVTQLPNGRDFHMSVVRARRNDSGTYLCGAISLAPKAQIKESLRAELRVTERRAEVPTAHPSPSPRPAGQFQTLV

- KD mutant/KD wild-type [1]: 0.7 ratio
- KD mutant/KD wild-type [2]: 0.6 ratio
- KD mutant/KD wild-type [3]: 0.9 ratio
- KD mutant/KD wild-type [4]: 0.2 ratio
- binding result [5]: no binding (tested: 1 nM to 50 nM)
- KD mutant/KD wild-type [6]: 5.4 ratio
- KD mutant/KD wild-type [7]: 0.6 ratio
- KD mutant/KD wild-type [8]: 0.4 ratio
- KD mutant/KD wild-type [9]: 4.6 ratio
- binding result [10]: no binding (tested: 1 nM to 50 nM)
- binding result [11]: no binding (tested: 1 nM to 50 nM)
- KD mutant/KD wild-type [12]: 1 ratio
B1: 12865.17150 Fab (Fab, V domains shown)
VH: EVQLLESGGGLVQPGGSLRLSCAASGFDFSDHGMQWVRQAPGKGLEYVGVIDTTGRYTYYAPAVKGRATISRDNSKNTLYLQMNSLRAEDTAVYYCAKTTCVGGYLCNTVGSIDAWGQGTLVTVSS
VL: SYELTQDPAVSVALGQTVRITCSGGGSSSYYGWYQQKPGQAPVTVIYDDTNRPSGIPDRFSGSSSGNTASLTITGAQAEDEADYYCGGYEGSSHAGIFGSGTKVTVL
notes: monomeric Fab fragment

- KD mutant/KD wild-type [1]: 1 ratio
- KD mutant/KD wild-type [2]: 0.7 ratio
- KD mutant/KD wild-type [3]: 2.5 ratio
- KD mutant/KD wild-type [4]: 0.8 ratio
- KD mutant/KD wild-type [5]: 1.6 ratio
- KD mutant/KD wild-type [6]: 0.8 ratio
- KD mutant/KD wild-type [7]: 0.6 ratio
- KD mutant/KD wild-type [8]: 0.7 ratio
- KD mutant/KD wild-type [9]: 1.5 ratio
- KD mutant/KD wild-type [10]: 0.6 ratio
- KD mutant/KD wild-type [11]: 0.5 ratio
- KD mutant/KD wild-type [12]: 1.5 ratio
B2: 13112.15380 Fab (Fab, V domains shown)
VH: EVQLLESGGGLVQPGGSLRLSCAASGFTFSSYNMFWVRQAPGKGLEFVAEISGSNTGSRTWYAPAVKGRATISRDNSKNTLYLQMNSLRAEDTAVYYCAKSIYGGYCAGGYSCGVGLIDAWGQGTLVTVSS
VL: SYELTQDPAVSVALGQTVRITCSGGSSDYYGWFQQKPGQAPVTVIYYNNKRPSDIPDRFSGSSSGNTASLTITGAQAEDEADYYCGNADSSVGVFGSGTKVTVL

- KD mutant/KD wild-type [1]: 2.3 ratio
- KD mutant/KD wild-type [2]: 1.3 ratio
- KD mutant/KD wild-type [3]: 1.2 ratio
- KD mutant/KD wild-type [4]: 7.1 ratio
- KD mutant/KD wild-type [5]: 6.4 ratio
- KD mutant/KD wild-type [6]: 17.7 ratio
- KD mutant/KD wild-type [7]: 2.2 ratio
- KD mutant/KD wild-type [8]: 3.6 ratio
- KD mutant/KD wild-type [9]: 3.8 ratio
- binding result [10]: no binding (tested: 1 nM to 50 nM)
- binding result [11]: no binding (tested: 1 nM to 50 nM)
- KD mutant/KD wild-type [12]: 1.7 ratio
- Kd [13]: 0.0268 nM
B3: 12819.17149 Fab (Fab, V domains shown)
VH: EVQLLESGGGLVQPGGSLRLSCAASGFTFTRYDMVWVRQAPGKGLEWVAGIGDSNKMTRYAPAVKGRATISRDNSKNTLYLQMNSLRAEDTAVYYCAKGSCIACWDEAGRIDAWGQGTLVTVSS
VL: SYELTQDPAVSVALGQTVRITCSGGGSYDGSSYYGWYQQKPGQAPVTVIYNNNNRPSDIPDRFSGSSSGNTASLTITGAQAEDEADYYCGSYDRPETNSDYVGMFGSGTKVTVL
notes: monomeric Fab fragment

Reference: patent publication US20210284734A1 (SYMPHOGEN A S, published 2021)
